Results from publication PMC5170556 (Molecular Biology of the Cell, 2016).
Positions count from the first letter of the chain named.

T1: Kar9-GFP (S. cerevisiae, UniProt P32526 1-644)
T1 sequence (looked up): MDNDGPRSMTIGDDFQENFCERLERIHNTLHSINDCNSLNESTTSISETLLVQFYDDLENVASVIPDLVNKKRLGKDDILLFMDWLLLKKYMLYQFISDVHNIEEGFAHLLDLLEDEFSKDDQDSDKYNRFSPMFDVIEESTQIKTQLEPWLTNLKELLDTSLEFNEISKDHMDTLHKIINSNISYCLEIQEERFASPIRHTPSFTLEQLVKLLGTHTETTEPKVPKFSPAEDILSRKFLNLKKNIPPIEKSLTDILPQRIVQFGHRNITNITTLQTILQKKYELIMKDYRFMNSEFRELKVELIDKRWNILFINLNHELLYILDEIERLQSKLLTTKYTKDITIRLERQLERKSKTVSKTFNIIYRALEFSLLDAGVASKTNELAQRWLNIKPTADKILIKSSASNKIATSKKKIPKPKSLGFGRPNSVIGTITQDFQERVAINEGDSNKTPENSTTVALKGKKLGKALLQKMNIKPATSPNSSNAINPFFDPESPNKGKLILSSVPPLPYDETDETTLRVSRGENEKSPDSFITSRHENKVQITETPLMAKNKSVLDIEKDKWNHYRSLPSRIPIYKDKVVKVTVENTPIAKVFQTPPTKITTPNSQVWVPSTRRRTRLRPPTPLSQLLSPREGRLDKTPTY

T2: Kar9N-Site1 (first 570 N-terminal residues of Kar9) (S. cerevisiae, UniProt P32526 1-570)
T2 sequence (looked up): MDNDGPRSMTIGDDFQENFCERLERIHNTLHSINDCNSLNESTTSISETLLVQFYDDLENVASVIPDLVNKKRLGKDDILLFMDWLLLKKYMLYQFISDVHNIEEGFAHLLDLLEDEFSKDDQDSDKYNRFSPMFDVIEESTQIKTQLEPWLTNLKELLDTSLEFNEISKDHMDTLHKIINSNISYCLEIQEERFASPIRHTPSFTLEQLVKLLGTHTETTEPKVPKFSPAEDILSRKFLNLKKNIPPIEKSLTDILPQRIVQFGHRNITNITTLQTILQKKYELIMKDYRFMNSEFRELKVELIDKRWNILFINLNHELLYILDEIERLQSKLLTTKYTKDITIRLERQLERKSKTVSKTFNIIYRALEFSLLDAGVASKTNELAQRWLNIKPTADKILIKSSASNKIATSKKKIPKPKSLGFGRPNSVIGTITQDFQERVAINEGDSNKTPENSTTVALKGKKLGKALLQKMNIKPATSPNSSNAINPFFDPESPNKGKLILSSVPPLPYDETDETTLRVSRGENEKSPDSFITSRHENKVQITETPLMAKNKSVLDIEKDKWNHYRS

T3: Kar9 (full-length) (S. cerevisiae, UniProt P32526 1-644)
T3 sequence (looked up): T1 sequence (looked up)

B1: Mal3 (unlabeled), Schizosaccharomyces pombe EB1 family member (natural protein, UniProt Q10113 1-308, looked up)
chain: MSESRQELLAWINQVTSLGLTRIEDCGKGYAMIQIFDSIYQDIPLKKVNFECNNEYQYINNWKVLQQVFLKKGIDKVVDPERLSRCKMQDNLEFVQWAKRFWDQYYPGGDYDALARRGNRGPANTRVMNSSAGATGPSRRRQVSSGSSTPSMTKSSANNNNVSSTANTAAVLRAKQAQQQITSLETQLYEVNETMFGLERERDFYFNKLREIEILVQTHLTTSPMSMENMLERIQAILYSTEDGFELPPDQPADLTTALTDHDTNNVAEEAQMTDLKDSETQRVPSAPDFVHARLQSLEVDDDENITF
B2: Kar9C (residues 429–644) (domain or fragment, S. cerevisiae, UniProt P32526 429-644, looked up)
chain: SVIGTITQDFQERVAINEGDSNKTPENSTTVALKGKKLGKALLQKMNIKPATSPNSSNAINPFFDPESPNKGKLILSSVPPLPYDETDETTLRVSRGENEKSPDSFITSRHENKVQITETPLMAKNKSVLDIEKDKWNHYRSLPSRIPIYKDKVVKVTVENTPIAKVFQTPPTKITTPNSQVWVPSTRRRTRLRPPTPLSQLLSPREGRLDKTPTY
B3: Kar9C-Site2mut (domain or fragment, S. cerevisiae, UniProt P32526 429-644, looked up)
chain: B2 chain with I147N, P148N
B4: Trx-Kar9-Site3 (domain or fragment)
chain: VFQTPPTKITTPNSQVWVPSTRRRTRLRPPTPLSQLLSPREGRLDKTPTY
B5: Bim1 (full-length) (natural protein, S. cerevisiae, UniProt P40013 1-344, looked up)
chain: MSAGIGESRTELLTWLNGLLNLNYKKIEECGTGAAYCQIMDSIYGDLPMNRVKFNATAEYEFQTNYKILQSCFSRHGIEKTVYVDKLIRCKFQDNLEFLQWLKKHWIRHKDESVYDPDARRKYRPIITNNSATKPRTVSNPTTAKRSSSTGTGSAMSGGLATRHSSLGINGSRKTSVTQGQLVAIQAELTKSQETIGSLNEEIEQYKGTVSTLEIEREFYFNKLRDIEILVHTTQDLINEGVYKFNDETITGHGNGNGGALLRFVKKVESILYATAEGFEMNDGEDELNDKNLGEHGTVPNQGGYANSNGEVNGNEGSNHDVIMQNDEGEVGVSNNLIIDEETF
B6: C-terminally green fluorescent protein–tagged Bim1 (natural protein, S. cerevisiae, UniProt P40013 1-344, looked up)
chain: B5 chain
B7: GFP-tagged C-terminal domain of Bim1 (domain or fragment, S. cerevisiae, UniProt P40013 194-344, looked up)
chain: ETIGSLNEEIEQYKGTVSTLEIEREFYFNKLRDIEILVHTTQDLINEGVYKFNDETITGHGNGNGGALLRFVKKVESILYATAEGFEMNDGEDELNDKNLGEHGTVPNQGGYANSNGEVNGNEGSNHDVIMQNDEGEVGVSNNLIIDEETF
B8: C-terminal domain of Bim1 (residues 194–344) (domain or fragment, S. cerevisiae, UniProt P40013 194-344, looked up)
chain: B7 chain

How the values were obtained:
[1] = target: Kar9 (full-length) (S. cerevisiae) (UniProt P32526); assay: SEC-MALS
[2] = target: Kar9N (residues 1–429) (S. cerevisiae) (UniProt P32526); assay: SEC-MALS
Kar9-GFP = target: T1, Kar9-GFP; assay: in vitro microtubule-tip tracking reconstitution
[3] = target: B8; assay: ITC
SEC-MALS = target: the molecule itself; assay: SEC-MALS
AUC = target: the molecule itself; assay: AUC
[4] = target: T2, Kar9N-Site1 (first 570 N-terminal …); assay: fluorescence correlation spectroscopy
Kar9 (full-length) = target: T3, Kar9 (full-length); assay: fluorescence correlation spectroscopy
Kar9C-Site2mut = target: B3; assay: ITC
Kar9C (residues 429–644) = target: B2; assay: ITC

**Q.** “Kar9 (full-length) (from UniProt P32526 1-644) (natural protein)” was tested. Which stoichiometry N [1] did it give?
**A.** 2

**Q.** With “Kar9N (residues 1–429) (from UniProt P32526 1-429) (domain or fragment)” as the molecule, how does the stoichiometry N [2] read?
**A.** 2

**Q.** Does B1 bind (Kar9-GFP)?
**A.** binds

**Q.** B2 was tested. Which “stoichiometry N” value [3] did it give?
**A.** 0.48

**Q.** Which “stoichiometry N” value [3] does the source give for B3 here?
**A.** 0.74

**Q.** What does the source list for B4?
**A.** Kd [3]: 560 nM; stoichiometry N [3]: 0.99

**Q.** Which “stoichiometry N” value (SEC-MALS) does the source give for B5 here?
**A.** 2

**Q.** Which “stoichiometry N” value (AUC) does the source give for B6 here?
**A.** 2

**Q.** And the Kd [4]?
**A.** ~100 µM

**Q.** For B7, which Kd (Kar9 (full-length)) is on record?
**A.** 4.5 nM

**Q.** Which “stoichiometry N” value (SEC-MALS) does the source give for B8 here?
**A.** 2

**Q.** And the Kd (Kar9C-Site2mut)?
**A.** 4.7 µM

**Q.** And the Kd (Kar9C (residues 429–644))?
**A.** 9.1 nM
